The target of assay [1] is DENV-2 (16681) envelope (E) protein (dengue virus type 2 (DENV-2 16681)) (UniProt P29990). Nature of the assay: cell-based or functional assay.
The target of assay [2] is T1, DENV-3 (H87) envelope (E) protein (dengue virus type 3 (DENV-3 H87), UniProt P27915 281-773).
T1 construct: whole, on cells
Nature of the assay: ELISA on DENV-3-infected C6/36 cells. Background: An ELISA detects its analyte on a solid surface through an enzyme-linked reagent.

Assay [3] addresses T2, DENV-4 (H241) envelope (E) protein (dengue virus type 4 (DENV-4 H241), UniProt Q58HT7 280-774).
T2 construct: whole, on cells
Nature of the assay: ELISA on DENV-4-infected C6/36 cells.

T2 sequence (Q58HT7 280-774): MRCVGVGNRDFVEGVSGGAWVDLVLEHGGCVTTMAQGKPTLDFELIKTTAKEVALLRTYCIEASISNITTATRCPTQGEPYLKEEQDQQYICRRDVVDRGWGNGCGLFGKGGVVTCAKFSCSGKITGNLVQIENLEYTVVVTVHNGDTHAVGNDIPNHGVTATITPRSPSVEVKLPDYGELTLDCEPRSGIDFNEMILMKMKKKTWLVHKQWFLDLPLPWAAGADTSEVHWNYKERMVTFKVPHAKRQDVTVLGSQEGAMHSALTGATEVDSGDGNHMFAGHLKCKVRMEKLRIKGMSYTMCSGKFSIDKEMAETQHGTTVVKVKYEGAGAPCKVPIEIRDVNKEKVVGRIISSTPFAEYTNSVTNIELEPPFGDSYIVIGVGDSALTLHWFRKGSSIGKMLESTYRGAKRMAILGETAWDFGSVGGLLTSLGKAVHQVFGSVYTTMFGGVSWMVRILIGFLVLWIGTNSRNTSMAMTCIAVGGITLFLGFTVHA

With 3H5 (antibody), in assay [1], the PRNT50 (µg/ml), D2 was under 0.41 µg/mL and the concentration of complete inhibition of viral infection (PRNT) amounted to 11 µg/mL.

In assay [1], 4G2 (antibody) came in with a PRNT50 (µg/ml), D2 of under 11 µg/mL.

normal mouse IgG (antibody) had a neutralizing activity (PRNT) in assay [1] of over 100 µg/mL.

B1: DB25-2 (antibody, V domains shown)
VH: QVQLKESGPGLVQPSQSLSITCTVSGFSLTDYGVHWIRQSPGKGLEWLGVIWRGGITDYNAAFMSRLSITKDNSKSQVFFKMDSLQPDDSAIYYCAKNFGTHYYGSNYGNFDYWGQGTTLTVSS
VL: VVMTQTPKFLLVSAGDRVTITCKASQSVSNDVAWYQQKPGQSPKLLIYYVSNRYSGVPDRFTGSGYGTDFTFTINTVQAEDLAVYFCQQDYSSPYTFGGGTKLEIK
Turning to B1, the binding result in assay [2] and in assay [3] was “no binding (tested: A490 < 0.2 (MAb at 1 µg/ml))” each time.

The record behind these values is patent US20120014945A1 (ACADEMIA SINICA, published 2012).
